Data reported in article PMC8828441.

Target: ADDomer-SpyTag (human adenovirus type 3)
Test: covalent SpyTag/SpyCatcher adduct on SDS-PAGE

In the case of SpyCatcher, the stoichiometry N (copies per particle) is reported as 60.
